Columns and labels:
[1] = molecular target: T1, recombinant hCD16a/FcγRIIIa (human, UniProt P08637 17-208); test: ELISA, recombinant FcγR immobilized at 2 µg/ml, detection with peroxidase-labeled anti-human IgG
T1 construct: Bought recombinant protein, immobilized on plastic at 2 µg/ml

[2] = molecular target: T2, recombinant hCD32a/FcγRIIa (human, UniProt P12318 36-218); test: as above
T2 construct: Bought recombinant protein, immobilized on plastic at 2 µg/ml
T2 sequence (looked up): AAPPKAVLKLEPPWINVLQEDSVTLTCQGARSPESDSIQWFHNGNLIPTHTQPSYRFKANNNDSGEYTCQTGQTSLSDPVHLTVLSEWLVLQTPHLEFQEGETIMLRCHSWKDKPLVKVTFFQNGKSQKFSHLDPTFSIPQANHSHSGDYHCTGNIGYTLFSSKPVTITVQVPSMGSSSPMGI

recombinant hCD64/FcγRI = molecular target: T3, recombinant hCD64/FcγRI (human, UniProt P12314 16-288); test: as above
T3 construct: Bought recombinant protein, immobilized on plastic at 2 µg/ml
T3 sequence (P12314 16-288 limits assumed): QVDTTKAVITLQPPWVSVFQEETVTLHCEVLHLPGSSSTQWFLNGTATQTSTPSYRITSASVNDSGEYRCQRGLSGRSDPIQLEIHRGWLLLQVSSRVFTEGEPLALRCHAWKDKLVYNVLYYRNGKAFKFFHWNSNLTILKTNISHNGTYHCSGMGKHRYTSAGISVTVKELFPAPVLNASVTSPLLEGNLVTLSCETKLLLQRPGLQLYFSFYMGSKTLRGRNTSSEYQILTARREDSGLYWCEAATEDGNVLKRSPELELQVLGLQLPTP

[3] = molecular target: T4, human CD127 (Interleukin-7 receptor subunit alpha) (human, UniProt P16871 21-459); test: flow cytometry on ALL cell lines, 10 ug/mL antibody, fold change of PE geometric mean against isotype control
T4 construct: Endogenous CD127 on human ALL cell lines (HPB-ALL, DND41, 697, NALM6, REH) and on patient cells; no signal peptide limits are stated; also called IL7R-a; IL-7R
T4 sequence: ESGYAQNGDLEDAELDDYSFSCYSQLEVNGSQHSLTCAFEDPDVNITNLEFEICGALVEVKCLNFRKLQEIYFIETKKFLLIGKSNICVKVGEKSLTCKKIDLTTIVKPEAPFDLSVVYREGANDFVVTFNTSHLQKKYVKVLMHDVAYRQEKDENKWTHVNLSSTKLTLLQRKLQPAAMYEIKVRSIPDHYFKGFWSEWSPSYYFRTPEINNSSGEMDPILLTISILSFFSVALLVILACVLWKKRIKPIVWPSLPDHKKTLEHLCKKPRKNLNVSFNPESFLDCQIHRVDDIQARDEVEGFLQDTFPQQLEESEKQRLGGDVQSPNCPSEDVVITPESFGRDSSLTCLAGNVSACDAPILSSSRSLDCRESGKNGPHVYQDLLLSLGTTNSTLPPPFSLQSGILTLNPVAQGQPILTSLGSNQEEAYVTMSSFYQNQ

T1 sequence (P08637 17-208 limits assumed): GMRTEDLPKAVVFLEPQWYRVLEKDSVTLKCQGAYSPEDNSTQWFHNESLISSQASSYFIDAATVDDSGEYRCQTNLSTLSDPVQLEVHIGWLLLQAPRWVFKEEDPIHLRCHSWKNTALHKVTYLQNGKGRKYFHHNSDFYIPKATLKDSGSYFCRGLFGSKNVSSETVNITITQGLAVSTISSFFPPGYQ

B1: N13B2-hVL6 (antibody, human IgG4 S228P, kappa)
heavy: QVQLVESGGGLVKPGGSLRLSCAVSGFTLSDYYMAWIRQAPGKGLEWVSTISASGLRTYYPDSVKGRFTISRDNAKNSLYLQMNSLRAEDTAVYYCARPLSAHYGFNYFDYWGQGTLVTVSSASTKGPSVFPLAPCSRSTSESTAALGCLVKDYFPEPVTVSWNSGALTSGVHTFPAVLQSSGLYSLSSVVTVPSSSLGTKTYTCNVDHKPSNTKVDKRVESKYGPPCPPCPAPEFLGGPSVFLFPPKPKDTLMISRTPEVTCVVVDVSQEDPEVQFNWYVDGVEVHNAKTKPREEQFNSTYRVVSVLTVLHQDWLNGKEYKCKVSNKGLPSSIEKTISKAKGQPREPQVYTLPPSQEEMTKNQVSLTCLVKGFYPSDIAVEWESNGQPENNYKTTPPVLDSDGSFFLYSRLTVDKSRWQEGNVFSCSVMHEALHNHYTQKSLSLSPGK
light: DIQMTQSPSSLSASVGDRVTITCRTSEDIYQGLAWYQQKPGKAPKLLLYSANTLHIGVPSRFSGSGSGTDYTLTISSLQPEDFATYYCQQYYDYPLAFGGGTKVEIKRTVAAPSVFIFPPSDEQLKSGTASVVCLLNNFYPREAKVQWKVDNALQSGNSQESVTEQDSKDSTYSLSSTLTLSKADYEKHKVYACEVTHQGLSSPVTKSFNRGEC
notes: Humanized antagonist anti-CD127 IgG4 antibody; also called NB13B2-hVL6; N13B6-hVL6; copies: 2 + 2
B1: no binding [1]; no binding [2]; no binding (recombinant hCD64/FcγRI). B1: binds [3].

From US20230227565A1 (OSE IMMUNOTHERAPEUTICS, published 2023)
